Drawing on publication doi:10.1101/716332, this text covers PLA dots per nucleus (PLA dots per nucleus) for one substance.

In the assay the target is PA28γ (endogenous, U2OS cells) (human (endogenous in U2OS)) (UniProt P61289). Nature of the assay: proximity ligation.
Sequence of UniProt P61289 (P61289 whole entry): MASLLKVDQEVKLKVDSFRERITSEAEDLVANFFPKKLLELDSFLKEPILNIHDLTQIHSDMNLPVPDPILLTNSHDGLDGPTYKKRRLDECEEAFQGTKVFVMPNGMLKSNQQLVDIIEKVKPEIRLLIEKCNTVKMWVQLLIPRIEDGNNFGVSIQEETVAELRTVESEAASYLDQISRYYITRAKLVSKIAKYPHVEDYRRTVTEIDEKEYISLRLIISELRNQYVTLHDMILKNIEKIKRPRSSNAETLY

“20S proteasome (endogenous, U2OS cells), detected by its α4 subunit (from UniProt O14818 1-248) (complex)” gave a PLA dots per nucleus (PLA dots per nucleus) of less than 60.
